Data taken from article PMC12618784.

Experiments:
Assay in all cases: TurboID biotin proximity labelling with mass spectrometry
Details in all cases: 3rd instar larval muscle tissue (mef2-Gal4); parent: 1
[1] = target: ATPsynD, SynO
[2] = target: Prohibitin2
[3] = target: SesB
[4] = target: Troponin-C

Substance: Dmel\Tmem43wt::TurboID (from UniProt Q9VSB9) p.S333L
- ratio to parent [1]: 0.3
- ratio to parent [2]: 0.18
- ratio to parent [3]: 0.29
- ratio to parent [4]: 0.07
